From PMC6752053 (Cell, 2019) come the findings set out here.

The data set deals with the molecule itself. Nature of the data set: X-ray diffraction of polymer pellets.

B1: His6-Pbp1_LC (C-terminal low-complexity region of Pbp1, a.a.570-722) (domain or fragment, S. cerevisiae, UniProt P53297 570-722, looked up)
chain: NSMGNAVPGMNPAMGMNMGGMMGFPMGGPSASPNPMMNGFAAGSMGMYMPFQPQPMFYHPSMPQMMPVMGSNGAEEGGGNISPHVPAGFMAAGPGAPMGAFGYPGGIPFQGMMGSGPSGMPANGSAMHSHGHSRNYHQTSHHGHHNSSTSGHK
As to B1, the binding result is on record as “binds”.
